From patent US11078245B2, “Colon and pancreas cancer peptidomimetics” (PRECISION BIOLOGICS, INC., priority 2010, dated 2021)

Columns and labels:
[1] = target: T1, MUC5AC long construct (Homo sapiens, UniProt P98088, DEL3501-3501/G3481S/I3234V); test: Immunofluorescence of transfected CHO cells; assay type: cell-based; details: different plasmid clones of the MUC5AC long construct
T1 construct: expressed in transfected cells; host or cells: CHO cells, transient/clonal plasmid transfection
T1 sequence (P98088 with tags, fused parts or gaps I3234V/G3481S/DEL3501-3501): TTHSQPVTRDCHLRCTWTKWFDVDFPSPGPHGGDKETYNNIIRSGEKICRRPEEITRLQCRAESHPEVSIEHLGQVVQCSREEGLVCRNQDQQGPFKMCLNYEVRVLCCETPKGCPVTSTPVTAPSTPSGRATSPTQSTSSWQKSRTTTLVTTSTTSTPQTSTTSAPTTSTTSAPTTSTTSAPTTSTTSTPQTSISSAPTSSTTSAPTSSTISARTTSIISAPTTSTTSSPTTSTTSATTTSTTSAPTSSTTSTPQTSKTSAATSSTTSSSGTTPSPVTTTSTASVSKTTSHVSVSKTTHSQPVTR
From the text: (§1) An exemplary amino acid sequence of MUC5AC is presented in SEQ ID NO: 36 with an exemplary nucleic acid sequence encoding MUC5AC presented in SEQ ID NO: 37. Therefore, a recombinant expression plasmid was designed and constructed that encoded residues upstream of tandem repeat units and two tandem repeat units (“MUC5AC-long” SEQ ID NO: 38 with the corresponding nucleic acid sequence of SEQ ID NO: 39). The MUC5AC long peptide corresponds to amino acid residues 2636 to 2942 of the MUC5AC protein (SEQ ID NO: 36). A second expression plasmid was designed and constructed that encoded primarily a short domain which connects to the central repetitive region and only a portion of the tandem repeat residues (“MUC5AC-short” SEQ ID NO: 40 with the nucleic acid encoding it in SEQ ID NO: 41). The MUC5AC short peptide corresponds to amino acid residues 2636 to 2763 of the MUC5AC protein (SEQ ID NO: 36). These smaller fragments of the large MUC5AC molecule were predicted to comprise NEO-101 antibody binding regions that contain the NPC-1 epitope(s).
(§2) The DNA sequences that contained NEO-101 antibody binding regions, based on the amino acid sequence, were back-translated to nucleic acid sequence and the DNAs were synthesized by methods well-known in the art. […]

[2] = target: T2, MUC5AC short construct (Homo sapiens, UniProt P98088, I3234V); test: Immunofluorescence of transfected CHO cells; assay type: cell-based; details: different plasmid clones of the MUC5AC short construct
T2 construct: expressed in transfected cells; host or cells: CHO cells, transient/clonal plasmid transfection
T2 sequence (P98088 3212-3339 I3234V): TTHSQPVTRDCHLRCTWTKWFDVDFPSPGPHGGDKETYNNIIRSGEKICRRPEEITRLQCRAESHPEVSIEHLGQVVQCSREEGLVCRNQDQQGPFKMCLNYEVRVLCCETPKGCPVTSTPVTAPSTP
From the text: as §1, §2

[3] = Cytokine response in vivo, multiplex bead assay; set-up: species or system BALB/c mice; details: 3.5 or 14 mg/kg iv; day 3
Procedure: In a preliminary study designed to evaluate potential cytokine responses in vivo, normal BALB/c mice were injected intravenously with either 3.5 mg/kg or 14 mg/kg (5 mice per group) of research-grade NEO-101. Blood was collected on Study Day 3 (^72 hours post-injection) and Study Day 10. Serum was prepared (including from the pre-bleed of each mouse) and tested for the presence of mouse IL-2, IFN-γ, IL-4, and IL-5 in a multiplex bead assay using the SearchLight Array service offered by Aushon BioSystems, Inc.

[4] = Pharmacokinetics; assay type: in vivo, mice; details: for serum half-life (t½): single dose 100 mg/kg
Procedure: To determine whether gender impacted the disposition of NEO-101 in vivo, each treatment group contained four males and four females. Clearance, Cmax and half-life following a single dose of 10 or 100 mg/kg were compared by non-parametric Mann-Whitney test. […] However, the serum half-life of NEO-101 was shorter in females than in males. […] However, it is likely that this is a spurious observation, arising from high inter-animal variability, as this difference in half-life was not replicated following multiple doses, regardless of dose level.
The data provides useful guidance for the dosing schedule of possible therapeutic regimes. Mice injected intravenously with 10 mg/kg of NEO-101 may be used for comparison to the doses used in therapy regiments for humans, for instance.

B1: NEO-101: Chimeric NEO-101 antibody, engineered in CHO-DG44 production cell clone 4B7; targets a variant of MUC5AC (protein)
light: QVVLTQSPVIMSASPGEKVTMTCSASSSISYMYWYQQKPGTSPKRWIYDTSKLASGVPARFSGSGSGTSYSLTISNMEAGDAATYYCHQRDSYPWTFGGGTNLEIK
heavy: QVQLKESGPDLVAPSQSLSITCTVSGFSLSKFGVNWVRQPPGKGLEWLGVIWGDGSTSYNSGLISRLSISKENSKSQVFLKLNSLQADDTATYYCVKPGGDYWGHGTSVTVSS
CHO cells bound by antibody [1]: 76%-88%
CHO cells bound by antibody [2]: 11%-80%
serum level of IFN-γ [3]: no appreciable change
serum level of IL-2 [3]: small increase
serum level of IL-4 [3]: no appreciable change
serum level of IL-5 [3]: small increase
serum half-life (t½) ([4]; females): 109.5 ± 14.72 h
serum half-life (t½) ([4]; males): 285.4 ± 139.5 h
clearance ([4]; mice): low clearance
volume of distribution ([4]; mice): limited volume of distribution
gender-specific differences in clearance or Cmax ([4]; single dose of 10 or 100 mg/kg): No significant gender-specific differences were observed
